Test results published in IntAct's records for PubMed 19415803.

B1: DNA polymerase III subunit tau (Bacillus subtilis), P09122 (parent)
chain: MSYQALYRVFRPQRFEDVVGQEHITKTLQNALLQKKFSHAYLFSGPRGTGKTSAAKIFAKAVNCEHAPVDEPCNECAACKGITNGSISDVIEIDAASNNGVDEIRDIRDKVKFAPSAVTYKVYIIDEVHMLSIGAFNALLKTLEEPPEHCIFILATTEPHKIPLTIISRCQRFDFKRITSQAIVGRMNKIVDAEQLQVEEGSLEIIASAADGGMRDALSLLDQAISFSGDILKVEDALLITGAVSQLYIGKLAKSLHDKNVSDALETLNELLQQGKDPAKLIEDMIFYFRDMLLYKTAPGLEGVLEKVKVDETFRELSEQIPAQALYEMIDILNKSHQEMKWTNHPRIFFEVAVVKICQTSHQSAADLPEVDMLMKKIQQLEQEVERLKTTGIKAAAESPKKEAPRVPKGGKSNYKAPVGRIHEILKEATRPDLDLLRNSWGKLLAHLKQQNKVSHAALLNDSEPVAAGSAAFVLKFKYEIHCKMVAEDNNGVRTNLEQILESMLGKRMDLIGVPEAQWGKIREEFLEDHQQENEGSNEPAEEDPLIAEAKKLVGADLIEIKD
partner: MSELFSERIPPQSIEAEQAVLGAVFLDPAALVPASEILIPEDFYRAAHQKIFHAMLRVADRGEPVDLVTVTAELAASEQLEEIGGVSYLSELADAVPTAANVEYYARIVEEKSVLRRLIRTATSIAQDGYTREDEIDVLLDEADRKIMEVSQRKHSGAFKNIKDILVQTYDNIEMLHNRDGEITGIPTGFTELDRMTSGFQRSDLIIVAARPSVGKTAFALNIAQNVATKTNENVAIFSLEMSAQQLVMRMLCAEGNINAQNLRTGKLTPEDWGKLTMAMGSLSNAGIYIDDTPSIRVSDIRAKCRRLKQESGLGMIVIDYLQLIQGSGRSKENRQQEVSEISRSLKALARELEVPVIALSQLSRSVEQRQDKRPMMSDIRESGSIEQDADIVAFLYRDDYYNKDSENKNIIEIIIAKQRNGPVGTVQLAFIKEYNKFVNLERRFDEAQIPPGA

Variants of: B1
Conditions: with dnab_geose dnaB

Effect of a mutation on the interaction, decreasing interaction strength:
W519R
C483S
G492R
F473L
D510S
A550V
